Results from PMC10997623, “Cryo-EM structures of prokaryotic ligand-gated ion channel GLIC provide insights into gating in a lipid environment” (Nature Communications, 2024).

Target: the molecule itself
Test: cryo-EM structure; GLIC in MSP1E3D1 lipid nanodiscs (asolectin at pH 7.5; DOPE:POPS:POPC 2:1:1 at pH 7.5, 5.5, 4.0 and 2.5), 150 mM NaCl, 1 mM EDTA; seven maps at 2.6-3.4 Å; homopentamer

B1: GLIC, proton-activated prokaryotic ligand-gated ion channel from Gloeobacter violaceus (natural protein)
chain: QDMVSPPPPIADEPLTVNTGIYLIECYSLDDKAETFKVNAFLSLSWKDRRLAFDPVRSGVRVKTYEPEAIWIPEIRFVNVENARDADVVDISVSPDGTVQYLERFSARVLSPLDFRRYPFDSQTLHIYLIVRSVDTRNIVLAVDLEKVGKNDDVFLTGWDIESFTAVVKPANFALEDRLESKLDYQLRISRQYFSYIPNIILPMLFILFISWTAFWSTSYEANVTLVVSTLIAHIAFNILVETNLPKTPYMTYTGAIIFMIYLFYFVAVIEVTVQHYLKVESQPARAASITRASRIAFPVVFLLANIILAFLFFGF
notes: GLIC, Gloeobacter violaceus ligand-gated ion channel; expressed as a GLIC-MBP fusion from pET26, MBP removed with HRV-3C protease; Homopentamer; also called GLIC_(aso-pH7.5); GLIC_(pH7.5); source: E. coli C41, purified (DDM, amylose resin, SEC), reconstituted in lipid nanodiscs with MSP1E3D1
  stoichiometry N: 5
